Experiments:
AIF H454A (human) = AIF H454A (human) (UniProt O95831); assay: SAXS
AIF S480A (human) = AIF S480A (human) (UniProt O95831); assay: SAXS

AIF H454A (from UniProt O95831 78-613) (domain or fragment)
stoichiometry N (AIF H454A (human)): 2

AIF S480A (from UniProt O95831 78-613) (domain or fragment)
stoichiometry N (AIF S480A (human)): 2
